# From US6344189B1, “Use of protease inhibitors for treating skin wounds” (Biotech Australia Pty., Ltd., priority 1998, dated 2002)
# “Also recorded” adds a separate entry of the source. Like-named read-outs stand apart in the source and are kept apart here. Where a SMILES comes first, the peptide text is derived from it. [ ]: non-standard residue; d: D form. The star is where a group is joined. Sta = CC(C)C[C@H](N)[C@@H](O)CC(=O)O; Isovaleryl = CC(C)CC(=O)*
# What was measured:
# [1] = tested on: protease activity in wound fluid; assay: Inhibition of protease activity in wound fluid in vitro, substrate ZGGRAMC, fluorescence at 460 nm; type: biochemical, patients
# Procedure: Wound fluid was collected from patients with chronic venous leg ulcers, and incubated in vitro in the presence or absence of each inhibitor along with the protease substrate ZGGRAMC. Cleavage of this substrate indicated protease activity, which was detected by fluorescence at 460 nm. Lack of fluorescence indicated inhibition of protease activity.
# Conditions were as described above for single inhibitors.
# [2] = tested on: chronic venous leg ulcers; assay: Double blind placebo controlled randomized trial of topical PAI-2, ulcer area by tracing; type: in vivo, patients; conditions: PAI-2 20 μg per cm^2 topical, five consecutive days; 29-day course; compared with placebo
# Excerpt: The study was a double blind placebo controlled randomized trial. A stratified randomization was utilized according to ulcer size. Patients with ulcers less than, and greater than, 20 cm^2 were randomized separately. No minimum or maximum times were set for the patients' current ulcer episode. Minimum and maximum ulcer areas were 2 cm^2 and 50 cm^2, and a patient's resting ankle brachial doppler arterial pressure index for inclusion was equal to or greater than 0.80.
# All patients received compression bandaging. The area of the ulcer was determined by tracing, and the test solution, either PAI-2 at 1.0 mg/ml in phosphate buffered saline, pH 7.0, or buffer alone, was applied at 20 μl (20 ,μg in the case of PAI-2) per cm^2. The patient was asked to lie recumbent on the examination couch while the test solution was applied to the surface of the wound, and to remain there for 15 minutes before bandaging was applied.
# (§1) Test solution was applied in this manner for five consecutive days. This was followed by visits on days 15, 22, and 29. Ulcer area determination was made on days 1, 5, 15, 22, and 29, ulcer volume was measured by structured light assessment on days 1, 5, and 29, and the ulcer was photographed on days 1, 5, and 29. Adverse events were assessed at each visit, as were concomitant medications.
# uPA [3] = assay: uPA activity in patients' wound fluid by Chromolise assay; type: in vivo
# Procedure: (§2) In addition, wound fluid was collected on the first day before addition of test solution, and 2 hr, 4 hr, and 6 hr afterwards. Wound fluid collection was also made on days 2, 3, 4, and 5 (before test solution addition) and day 29. Blood samples were taken on day 1 at 0 (before), 0.5 hr, 1 hr, and 2 hr after the test solution, and also at day 5. A punch biopsy was taken for histochemical examination of the ulcer edge on day 5.
# (§3) All wound fluid samples were analyzed for uPA activity by the Chromolise assay, and for total protein by the Bradford assay. If sufficient wound fluid was available, the following assays were also performed, in order of priority: (i) PAI-2 antigen level, by ELISA; (ii) a Western blot to detect whether the PAI-2 molecule was intact, complexed, or in fragments; (iii) total protease activity, determined by a chromogenic assay using azo-casein as substrate, and (iv) total protease activity in the presence of EDTA (to block metalloproteases) or aprotinin (to block plasmin). In addition, blood samples were analyzed by PAI-2 ELISA (0, 0.5, 1, 2 hr on day 1) and analyzed for FBC and clinical chemistry on day 1(0) and day 5.
# (§4) The ELISA used for PAI-2 detected both glycosylated and non-glycosylated PAI-2, and both complexed (with uPA or tPA) and uncomplexed PAI-2. Insufficient wound fluid was obtained for total protease assays in the presence of aprotinin or EDTA. The variation in ulcer volume measurements by structured light assessment was very large:—20.4% on repeated measurements, so those data could not be used to judge small changes in ulcer volume.
# [4] = PAI-2 antigen level by ELISA and Western blot in wound fluid and blood samples; type: in vivo, patients; conditions: for level of PAI-2 in wound fluid: first visit
# Procedure: as §2, §3, §4
# [5] = tested on: total protease activity in wound fluid; assay: Total protease activity in wound fluid, chromogenic assay with azo-casein substrate; type: in vivo, patients; conditions: ng/ml of wound fluid or ng/mg protein
# Procedure: as §3
# [6] = Adverse events and histological examination of ulcer edge biopsies; type: in vivo, patients
# Procedure: as §1, §2
# Histological examination was performed on biopsies taken at visit 5 after staining with hematoxylin and eosin. […] This effect is likely to be beneficial to the ulcer.
# [7] = Stability of PAI-2 in wound fluid; type: in vitro ADME; conditions: 3-hour period, FIG. 1
# Procedure: (§5) It also is apparent that the inhibitors must be stable in the wound fluid to be effective in aiding wound healing. In the context of the present invention, an inhibitor is suitably stable when it retains at least 50% of its activity after exposure to wound fluid for 3 hours. In this regard, therefore, it is particularly desirable to use an inhibitor that inhibits uPA and is stable in wound fluid.
# uPA [8] = molecular target: T1, uPA (Homo sapiens, UniProt P00749); assay: Addition of PAI-2 to wound fluid, uPA activity; type: biochemical; conditions: PAI-2 added to wound fluid
# T1 construct: from tissue; host or cells: wound fluid
# Procedure: as §5
# [9] = PAI-2 release from gel in two compartment vessel with microporous membrane; type: physicochemical; conditions: cellulose gel, presence of Tween80, FIG. 4
# Excerpt: In these experiments, the PAI-2 containing gel was placed in the top chamber of a two compartment vessel. The bottom chamber contained buffer, and the two chambers were separated by a microporous membrane. The appearance of PAI-2 in the lower chamber indicated PAI-2 release from the gel, and was monitored by assays for PAI-2 activity.
# [10] = single inhibitors, wound fluid of chronic venous leg ulcers
molecule,measurement,setting,value
N=C(N)NC(=O)c1nc(Cl)c(N)nc1N [Amiloride],Percent Inhibition,[1]; [10],96%
"O=C(O)CN(CCN(CC(=O)O)CC(=O)O)CC(=O)O [EDTA, ethylene diamine tetraacetic acid]",Percent Inhibition,[1]; [10],0%
"CCN1C(=O)C=CC1=O [NEM, N-ethyl maleimide]",Percent Inhibition,[1]; [10],21%
CC(C)CC(=O)N[C@H](C(=O)N[C@H](C(=O)N[C@@H](CC(C)C)[C@@H](O)CC(=O)N[C@@H](C)C(=O)N[C@@H](CC(C)C)[C@@H](O)CC(=O)O)C(C)C)C(C)C [Pepstatin] (Isovaleryl-VV[Sta]A[Sta]-OH),Percent Inhibition,[1]; [10],0%
glutamic acid-glycine-arginine chloromethyl ketone [EGRCK],Percent Inhibition,[1],94%
"plasminogen activator inhibitor 2 (protein, UniProt P05120 1-415, looked up) Plasminogen activator …: MEDLCVANTLFALNLFKHLAKASPTQNLFLSPWSISSTMAMVYMGSRGSTEDQMAKVLQFNEVGANAVTPMTPENFTSCGFMQQIQKGSYPDAILQAQAADKIHSSFRSLSSAINASTGNYLLESVNKLFGEKSASFREEYIRLCQKYYSSEPQAVDFLECAEEARKKINSWVKTQTKGKIPNLLPEGSVDGDTRMVLVNAVYFKGKWKTPFEKKLNGLYPFRVNSAQRTPVQMMYLREKLNIGYIEDLKAQILELPYAGDVSMFLLLPDEIADVSTGLELLESEITYDKLNKWTSKDKMAEDEVEVYIPQFKLEEHYELRSILRSMGMEDAFNKGRANFSGMSERNDLFLSEVFHQAMVDVNEEGTEAAAGTGGVMTGRTGHGGPQFVADHPFLFLIMHKITNCILFFGRFSSP",ulcer area,[2],significant decrease in the area of leg ulcers compared to controls; also recorded: a reduction in the ulcer area
same,specific activity of uPA (ng/mg of total protein in wound fluid),"uPA [3]; first day of PAI-2 administration, relative to placebo group",declined over 6 hrs
same,difference in uPA between the two groups expressed as units/ml of wound fluid,uPA [3]; per ml of wound fluid rather than per mg total protein,not apparent
same,uPA activity in wound fluid,"uPA [3]; subsequent days over the course of the study, PAI-2 vs placebo",no significant difference
same,"intact PAI-2 in wound fluid, Western blot",[4]; 2 hr,significant amounts of intact PAI-2
same,level of PAI-2 in wound fluid,[4]; 2 hr after topical application,increased dramatically
same,level of PAI-2 in wound fluid,[4]; 4 hr after topical application,declined almost to baseline
same,systemic distribution of topically applied PAI-2,"[4]; blood samples, PAI-2 ELISA",No evidence of systemic distribution
same,total protease activity,[5],did not appear to be altered
same,"damage to the tissue, histological examination","[6]; biopsies at visit 5, hematoxylin and eosin",No evidence of damage to the tissue
same,systemic toxicity,[6]; in vivo,does not appear to have systemic toxicity
same,adverse events,"[6]; topical PAI-2, chronic leg ulcers, course of the study",none of the adverse events was deemed related to the PAI-2 treatment
same,stability in wound fluid,[7],relatively stable in wound fluid
same,uPA activity in wound fluid,uPA [8],caused the inhibition of uPA activity
same,release of PAI-2 from gel,[9],enhanced release
